Data taken from PMC5932101 (EJNMMI Radiopharmacy and Chemistry, 2018).

Tests used:
in vivo [1] = experiment: in vivo; parameters: species or system mice; details: female, athymic Balb/c nude, mouse, iv, total radioactivity
Experimental: (§1) All animal experiments complied with the current laws of the Federal Republic of Germany and were conducted according to German Animal welfare guidelines. Normal female athymic Balb/c nude mice (17–20 g, 4–6 weeks old) were obtained from Janvier SAS (St. Berthevin Cedex, France). Mice were provided with food and water ad libitum. U-87 MG tumors were inoculated on the right shoulder by sub-cutaneous injection of 5×10^6 cells in a 100 μL cell suspension of a 1:1 v/v mixture of media with reconstituted basement membrane (GFR BD Matrigel™, Corning BV, Amsterdam, Holland).
For PET imaging studies, mice (n = 3) were injected with 100 μL sterile filtered phosphate buffered saline formulations pH 7.4 of [^68Ga]3 (7–11 MBq) by intravenous tail-vein injection and anesthetized with isoflurane (2–4% in air) 5–10 min prior image acquisition. PET imaging was performed on a Focus 120 microPET scanner at 1 h after administration. Data were acquired 1 h post administration in list mode. Reconstruction was performed using unweighted OSEM2D. Image analysis was performed using AMIDE. Image counts per second per voxel (cps/voxel) were calibrated to activity concentrations (Bq mL^− 1) by measuring a 3.5 cm cylinder phantom filled with a known concentration of radioactivity.

in vivo [2] = experiment: in vivo; parameters: species or system mice; details: female, athymic Balb/c nude, mouse, iv, total radioactivity; remark: listed apart in the source
Experimental: as §1
For each compound, a total of five animals were injected with [^68Ga]3 (7–11 MBq) in 100 μL sterile filtered phosphate buffered saline via a tail vein. At 1 h p.i., animals were sacrificed by isoflurane anesthesia. Organs of interest were dissected, weighed and assayed for radioactivity in a gamma counter. The percent injected activity per gram (%IA g^− 1) for each tissue was calculated by comparison of the tissue counts to a standard sample prepared from the injectate.

[3] = tested on: mice bearing αvß3-positive U-87 MG tumors; details: mouse, in vivo; cited from earlier work
Experimental: Table 1 Ex vivo biodistribution of [^68Ga]3 in mice bearing αvß3-positive U-87 MG tumors at 1 h p.i. along with blocking studies in comparison to [^68Ga]Ga-NODAGA-c(RGDfK) and [^68Ga]Ga-DOTA-c(RGDfK) (data taken from ref. Dumont et al. [2011]). Data are expressed as %IA g^− 1 and represent mean ± SD (n = 5) | column: [^68Ga]Ga-NODAGA-c(RGDfK) / 1 h; [^68Ga]Ga-DOTA-c(RGDfK) / 1 h || Biodistribution data for [^68Ga]3 are presented in Table 1. For comparison, equivalent data taken from the literature are also given for compounds [^68Ga]Ga-NODAGA-c(RGDfK) and [^68Ga]Ga-DOTA-c(RGDfK) (Dumont et al. [2011]). The primary difference between these three compounds is the change in chelator.

[4] = tested on: U-87 MG tumor bearing mice; details: mouse, in vivo; cited from earlier work
Experimental: In addition to the ex vivo biodistribution studies, the distribution profile of [^68Ga]3 was also assessed 1 h after administration by small-animal PET imaging. Corresponding transverse and coronal maximum intensity projections of [^68Ga]3 in αvß3 xenograft bearing mice along with blocking studies are given Fig. 2. The results of the biodistribution study were confirmed by PET imaging. The αvß3 positive U-87 MG tumors as well as the liver and the kidneys were clearly visible on the PET images. The tumor uptake of [^68Ga]3 was determined to 2.48 ± 0.14 %IA g^− 1. The differences in blood and ti ...

[5] = cited from earlier work
Excerpt: The radiolabelled conjugate [^68Ga]3 is highly hydrophilic with a log Doct/PBS value of − 3.89 ± 0.02.

Molecule | tissue to tissue ratio at 1 h (in vivo [1]) | tissue uptake at 1 h (in vivo [2]; Accumulation in all other organs (other than tumor, kidney, liver)) [%ID/g] | tissue to tissue ratio at 1 h (in vivo [2]; Tumor-to-blood ratio) | tissue to tissue ratio at 1 h (in vivo [2]; Tumor-to-kidney ratio) | tissue to tissue ratio at 1 h (in vivo [2]; Tumor-to-liver ratio) | tissue to tissue ratio at 1 h (in vivo [2]; Tumor-to-muscle ratio) | Tumor-to-blood ratio [3] | Tumor-to-kidney ratio [3] | Tumor-to-liver ratio [3] | Tumor-to-muscle ratio [3] | Tumor-to-background ratio (PET) [4] | log D [5]
Cn1ccnc1CN1CCN(CC(=O)NCCCC[C@@H]2NC(=O)[C@@H](Cc3ccccc3)NC(=O)[C@H](CC(=O)O)NC(=O)CNC(=O)[C@H](CCCNC(=N)N)NC2=O)CCN(Cc2nccn2C)CC1 [[^68Ga]3, [^68Ga]Ga-NODIA-Me-c(RGDfK), metal not drawn] | 6.76 | < 1 | 3.91 ± 0.43 | 1.27 ± 0.04 | 2.08 ± 0.18 | 11.7 ± 0.29 | – | – | – | – | – | –
[^68Ga]Ga-DOTA-c(RGDfK) (head to tail) | – | – | – | – | – | – | 9.24 ± 1.12 | 1.57 ± 0.14 | 2.25 ± 0.37 | 12.37 ± 1.81 | 3.28 | − 2.86 ± 0.01
[^68Ga]Ga-NODAGA-c(RGDfK) (head to tail) | – | – | – | – | – | – | 27.67 ± 7.01 | 2.64 ± 0.31 | 2.75 ± 0.31 | 12.80 ± 5.25 | 11.97 | − 3.27 ± 0.01
